From article PMC5033356, “Crystal Structure of the Escherichia coli Fic Toxin-Like Protein in Complex with Its Cognate Antitoxin” (PLoS ONE, 2016)
Substitutions are numbered along the chain they refer to. In names and notes the source's numbering stands.

B1: EcFicA (cognate antitoxin of EcFicT, wild type) (natural protein, Escherichia coli)
chain: KKLTDKQKSRLWELQRNRNFQASRRLEGVEMPLVTLTAAEALARLEELRSHYER
notes: EcFicA, product of the yhfG gene (renamed ecficA) of Escherichia coli; UniProt P0ADX5; model of PDB 5JFF covers residues 3-53; also called EcFicAwt; YhfG
B2: EcFicA_(E28G) (natural protein, Escherichia coli)
chain: B1 chain with E27G
notes: model of PDB 5JFZ covers residues 5-53; also called antitoxin mutant EcFicA_(E28G)

Assays:
[1] = target: T1, EcFicT_(G55R) (Escherichia coli, UniProt P20605 3-200, G55R); test: SEC-MALS; conditions: both partners purified
T1 construct: EcFicT of Escherichia coli, UniProt P20605, with G55R (the change encoded by the temperature-sensitive fic-1 allele), introduced by a single base-pair mutation; model of PDB 5JFF covers residues 10-15, 17-198; G55R is the change of the fic-1 mutant allele described by Utsumi et al; here it was introduced into the plasmid by mutagenesis; also called G55R point mutant of EcFicT; product of the …
T1 sequence: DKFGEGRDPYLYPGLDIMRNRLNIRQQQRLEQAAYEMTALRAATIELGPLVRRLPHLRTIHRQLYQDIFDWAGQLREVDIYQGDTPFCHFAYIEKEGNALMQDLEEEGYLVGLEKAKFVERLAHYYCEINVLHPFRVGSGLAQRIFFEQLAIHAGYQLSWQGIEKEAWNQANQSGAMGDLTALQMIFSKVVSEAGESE

[2] = target: T2, EcFicT (E. coli Fic toxin-like protein, wild type) (Escherichia coli, UniProt P20605 3-200); test: SEC-MALS; conditions: both partners purified
T2 construct: EcFicT, product of the fic gene (renamed ecficT) of Escherichia coli; UniProt P20605; model of PDB 5JFZ covers residues 10-81, 88-195; also called EcFicTwt; Fic protein from E. coli
T2 sequence: T1 sequence with R53G

Binder	stoichiometry N [1]	stoichiometry N [2]
B1	1	1
B2	1	1
